Assay [1] has as its target T1, immobilized IL13Rα2 (UniProt Q14627 27-343, limits assumed).
T1 construct: also called IL13Ra2
T1 sequence (looked up): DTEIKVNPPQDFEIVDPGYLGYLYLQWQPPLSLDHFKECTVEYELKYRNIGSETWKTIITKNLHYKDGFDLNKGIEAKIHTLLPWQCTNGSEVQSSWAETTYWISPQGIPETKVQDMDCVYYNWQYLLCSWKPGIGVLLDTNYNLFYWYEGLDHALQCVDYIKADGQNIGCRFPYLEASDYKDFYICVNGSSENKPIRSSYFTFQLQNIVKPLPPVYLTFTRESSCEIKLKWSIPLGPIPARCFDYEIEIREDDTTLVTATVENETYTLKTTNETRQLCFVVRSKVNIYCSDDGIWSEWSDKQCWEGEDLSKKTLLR
Put plainly: yeast-displayed IL13; surface plasmon resonance with immobilized recombinant receptor, as the filing words it. The text has this:
(§1) In an effort to identify IL13 variants with increased selectivity for binding IL13Rα2 relative to IL13Rα1. To assess receptor binding various mutants were compared to wild-type IL13 ([…] […]; SEQ ID NO: 1) and the previously known […] E11Y mutant ([…] […]; SEQ ID NO: 69). […] Surface plasmon resonance with immobilized recombinant IL13Rα1 and immobilized IL13Rα2 was used to assess binding affinity. As expected, WT bound strongly to both IL13Rα1 and IL13Rα2.
For orientation: SPR reads the build-up and loss of mass on a sensor chip optically.

Assay [2] deals with T2, immobilized recombinant IL13Rα1 (UniProt P78552 22-343, limits assumed).
T2 construct: also called IL13Ra1
T2 sequence (looked up): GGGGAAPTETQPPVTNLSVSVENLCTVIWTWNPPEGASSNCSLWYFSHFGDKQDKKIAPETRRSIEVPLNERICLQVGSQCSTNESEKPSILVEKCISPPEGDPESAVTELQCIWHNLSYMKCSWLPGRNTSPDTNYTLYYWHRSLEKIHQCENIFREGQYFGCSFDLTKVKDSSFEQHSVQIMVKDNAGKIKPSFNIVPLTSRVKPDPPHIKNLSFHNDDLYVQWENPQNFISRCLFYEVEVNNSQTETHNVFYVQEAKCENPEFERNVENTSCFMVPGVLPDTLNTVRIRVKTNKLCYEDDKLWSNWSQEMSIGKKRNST
Put plainly: yeast-displayed IL13 variant; surface plasmon resonance with immobilized recombinant receptor, as the filing words it.
From the text: as §1

B1: IL13 variant RLK (E11R: E90L: R107K) (ligand)
chain: GPVPPSTALRRLIEELVNITQNQKAPLCNGSMVWSINLTAGMYCAALESLINVSGCSAIEKTQRMLSGFCPHKVSAGQFSSLHVRDTKILVAQFVKDLLLHLKKLFKEGRFN
notes: display scaffold not described
The term Kd denotes the concentration at which binding is half-saturated. Consider B1, for which the dissociation constant (Kd) in assay [1] was 28 nM. Further, in assay [2], the binding result is on record as “no binding”.

B2: IL13 variant YLK (E11Y: E90L: R107K) (ligand)
chain: GPVPPSTALRYLIEELVNITQNQKAPLCNGSMVWSINLTAGMYCAALESLINVSGCSAIEKTQRMLSGFCPHKVSAGQFSSLHVRDTKILVAQFVKDLLLHLKKLFKEGRFN
notes: as for B1
B2: in assay [1], the Kd was 26 nM. Moreover, the binding result in assay [2] is given as “no binding”.

These data come from patent publication US20230405119A1 (CITY OF HOPE, published 2023).
